Test [1] deals with T1, human CD200R1 isoform a on CHOK1 cells (CHOK1/hCD200R1a) (human, UniProt Q8TD46 25-348).
T1 construct: also called CHOK1/CD200R1a
T1 sequence: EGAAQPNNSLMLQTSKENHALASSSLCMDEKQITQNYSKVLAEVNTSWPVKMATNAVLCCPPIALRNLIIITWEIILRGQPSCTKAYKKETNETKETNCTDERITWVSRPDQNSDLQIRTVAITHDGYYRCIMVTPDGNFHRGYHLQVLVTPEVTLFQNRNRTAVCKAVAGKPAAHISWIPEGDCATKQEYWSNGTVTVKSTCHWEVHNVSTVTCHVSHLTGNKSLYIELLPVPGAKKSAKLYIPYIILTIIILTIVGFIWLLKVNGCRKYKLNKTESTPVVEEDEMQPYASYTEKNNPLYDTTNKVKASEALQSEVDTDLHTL
The test is described as follows: flow cytometry, CHOK1/hCD200R1a cells; table beside the curves, head without unit, x axis Log [Ab] (nM). The procedure:
(§1) This example is intended to investigate the in vitro binding activity of human anti-CD200R1 monoclonal antibodies to human/Cynomolgus macaques CD200R1a expressed on the surface of cells. The anti-CD200R1 antibodies were produced as described in Example 3.4 and the binding experiments at the cell level were performed using CHOK1/hCD200R1a and CHOK1-cynoCD200R1a.
(§2) Briefly, CHOK1/hCD200R1a cells and CHOK1-cynoCD200R1a cells were digested, and collected, and then were resuspended in PBS containing 2% BSA, respectively. The cell density was adjusted to 1×10⁶ cells/mL. The cells were seeded in a 96-well V-bottom plate (Corning, #3894) at 100 μL/well, followed by the addition of test antibodies and reference antibodies in a series diluted concentration, each at 100 μL/well. The cells were incubated away from light at 4° C. for 1 h. Thereafter, the cells in each well were rinsed twice with 100 μL of pre-cooled PBS containing 2% BSA, and centrifuged at 500 g at 4° C. for 5 min, and then the supernatant was discarded. […] Finally, the cells in each well were resuspended in 200 μL of pre-cooled PBS containing 2% BSA, and the fluorescence signal values were read using a BD CantoII flow cytometer.
A general note: In flow cytometry, cells or beads pass a laser one at a time.

The target in test [2] is T2, Cynomolgus macaques CD200R1 isoform a on CHOK1 cells (CHOK1/cynoCD200R1a) (Cynomolgus macaques).
T2 chain: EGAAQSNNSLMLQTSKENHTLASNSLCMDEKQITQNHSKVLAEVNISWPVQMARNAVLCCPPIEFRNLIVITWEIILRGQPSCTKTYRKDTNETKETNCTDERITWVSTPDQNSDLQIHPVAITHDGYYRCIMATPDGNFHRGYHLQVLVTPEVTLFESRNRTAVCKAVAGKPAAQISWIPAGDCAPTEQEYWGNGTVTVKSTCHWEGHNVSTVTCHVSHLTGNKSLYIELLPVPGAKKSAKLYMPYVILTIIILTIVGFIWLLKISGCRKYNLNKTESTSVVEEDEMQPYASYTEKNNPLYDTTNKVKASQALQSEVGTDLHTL
The test is described as follows: flow cytometry, CHOK1/cynoCD200R1a cells; table beside the curves, head without unit, x axis Log [Ab] (nM). The procedure:
as §1, §2

Test [3] concerns the target T1, human CD200R1 isoform a on CHOK1 cells …. The test is described as follows: flow cytometry blocking assay: antibody titrated against biotin-labelled human CD200 binding to CHOK1/hCD200R1a cells; head prints EC50 without unit, x axis Log [Ab] (nM), y axis Inhibition %. The procedure: (§3) In brief, CHOK1/hCD200R1a cells were digested and resuspended in 2% BSA in PBS. […] The cells were placed at 4° C. and incubated for 1 hour in the dark. […] 100 μL/well of pre-cooled PBS containing 2% BSA was added to rinse the cells twice, centrifugation was performed at 500 g, 4° C. for 5 minutes, and the supernatant was discarded. Fluorescent secondary antibody (PE Streptavidin, BD, Cat #: 554061, 1:200) was added at 100 μL/well, and incubation was performed at 4° C. for 30 minutes in the dark. The cells were washed twice with 200 μL/well of pre-cooled PBS, and were centrifuged at 500 g, 4° C. for 5 minutes, and the supernatant was discarded. Finally, 200 μL/well of pre-cooled PBS was used to resuspend the cells, and the fluorescence signal values were read using ACEA Novocyte 3000 flow cytometer. IC50 values were calculated.

Test [4] shares this target. Nature of the test: flow cytometry, CHOK1/hCD200R1a cells (FITC-Mean); table beside the curves. The procedure:
as §1
Briefly, CHOK1/hCD200R1a cells and CHOK1-cynoCD200R1a cells were digested, and collected, and then were resuspended in PBS containing 2% BSA, respectively. The cell density was adjusted to 1×10⁶ cells/mL. The cells were seeded in a 96-well V-bottom plate (Corning, #3894) at 100 μL/well, followed by the addition of test antibodies and reference antibodies in a series diluted concentration, each at 100 μL/well. The cells were incubated away from light at 4° C. for 1 h. Thereafter, the cells in each well were rinsed twice with 100 μL of pre-cooled PBS containing 2% BSA, and centrifuged at 500 g at 4° C. for 5 min, and then the supernatant was discarded. 100 μL of fluorescent secondary antibody (Alexa Fluor 488-conjugated AffiniPure Goat Anti-Human IgG, Fcγ Fragment Specific, Jackson, #109-545-098, diluted in a 1:1000 ratio) was added in each well, and the plate was incubated away from light at 4° C. for 1 h. The cells in each well were rinsed twice with 100 μL of pre-cooled PBS containing 2% BSA, and centrifuged at 500 g at 4° C. for 5 min, and then the supernatant was discarded. Finally, the cells in each well were resuspended in 200 μL of pre-cooled PBS containing 2% BSA, and the fluorescence signal values were read using a BD CantoII flow cytometer.

The target in test [5] is T3, CD200R1a on PathHunter Jurkat CD200R1a signaling cells (Eurofins DiscoverX, 93-1136C19) (human, UniProt Q8TD46 25-348).
T3 sequence: T1 sequence
The test is described as follows: cell-based or functional assay.

In test [6] the target is T1, human CD200R1 isoform a on CHOK1 cells …. The test is described as follows: flow cytometry blocking assay: antibody titrated against human CD200 binding to CHOK1/hCD200R1a cells.
For test [7] the target is unchanged. The test is described as follows: flow cytometry blocking assay: biotin-labelled human CD200 binding to CHOK1/hCD200R1a cells; y axis Inhibition %. The procedure: as §3
Test [8] has as its target T3, CD200R1a on PathHunter Jurkat CD200R1a …. Nature of the test: cell-based or functional assay. This is another data set of the same source.

The values below come from patent publication US20250313626A1 (HARBOUR BIOMED SHANGHAI, published 2025).

Numbering of substitutions follows the chain as printed. Where two headings read alike, the source gives them in different places.

B1: PR005509 (antibody, human IgG1, kappa, L234A L235A, V domains shown)
VH: QVQLVESGGGVVQPGRSLRLSCAASGFTFSSYGFHWVRQAPGKGLEWLGLIWSDGSNKYYADSVKGRFTISRDNSKNTLYLQMNSLRAEDTAVYYCARDRIVGAGFDYWGQGTLVTVSS
VL: not shown
For the molecule B1, the EC50 in test [1] amounted to 6.57 nM; in test [2], 4.2 nM.

B2: PR007973 (antibody, human IgG1, kappa, V domains shown)
VH: B1 VH with L50I, G55A, A104E
VL: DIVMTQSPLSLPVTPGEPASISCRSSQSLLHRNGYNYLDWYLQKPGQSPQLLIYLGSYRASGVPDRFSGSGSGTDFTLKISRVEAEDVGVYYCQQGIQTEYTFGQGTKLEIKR
notes: PTM variant of PR006839 (human IgG1)
Take B2: the half-maximal effective concentration (EC50) in test [3] was determined as 0.36 nM. For the same molecule, the “MFI(Max)” value in test [4] is 19200. For the same molecule, in test [5], the “IC50 of the inhibition of CD200-induced PathHunter Jurkat CD200R1a luminescence (CHOK1/hCD200 cells as CD200 source)” value was 0.706 nM. Besides, the “IC50 (read off the curve)” value in test [6] was about 10 nM. Besides, in test [7], the “Blocking(Max)” value came to 100%.

B3: PR002906 (antibody, V domains shown)
VH: QVQLQESGPGLVKPSETLSLTCTVSGYTITSGYDWSWIRQPPGKGLEWIGYINYGGSTNYKPSLGSRVTISVDTSKNQFSLKLSSVTAADTAVYYCARYNEYKSYIYDWYFDFWGQGTLVTVSS
VL: DIQMTQSPSSLSASVGDRVTITCKASKNIRSYLAWYQQKPGKAPKLLIYSGSTLHSGVPSRFSGSGSGTDFTLTISSLQPEDFATYYCQQHHEYPLTFGQGTKVEIKR
notes: also called recombinant IgG1 antibody of huDX182
With B3, the figures for the EC50 in test [3], in test [1] and in test [2] were 0.463 nM, 15.2 nM and 15.5 nM, respectively. Also, the “MFI(Max)” value in test [4] came to 13900. Also, the “Blocking(Max)” value in test [7] is 96.6%.

B4: PR007221 (antibody, human IgG1, kappa)
heavy: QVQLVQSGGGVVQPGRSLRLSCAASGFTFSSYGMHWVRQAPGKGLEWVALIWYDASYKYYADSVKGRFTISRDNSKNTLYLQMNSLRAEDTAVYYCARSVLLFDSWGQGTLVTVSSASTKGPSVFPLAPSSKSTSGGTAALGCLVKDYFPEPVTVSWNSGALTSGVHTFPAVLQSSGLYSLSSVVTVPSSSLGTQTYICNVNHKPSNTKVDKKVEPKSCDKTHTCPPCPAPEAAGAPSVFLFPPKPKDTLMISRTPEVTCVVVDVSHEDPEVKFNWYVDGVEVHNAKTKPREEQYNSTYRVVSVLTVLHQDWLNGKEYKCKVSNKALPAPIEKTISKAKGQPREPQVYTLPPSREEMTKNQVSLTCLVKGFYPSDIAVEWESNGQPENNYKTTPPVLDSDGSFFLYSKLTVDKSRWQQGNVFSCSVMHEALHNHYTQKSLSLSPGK
light: DIQLTQSPPSLSASVGDRVTITCRASQSISSYLNWFQQKAGKAPKLLISATSNLQSGVPSRFSGSGSGTDFTLTISSLQPEDLATYYCQQTLSSPYTFGQGTKVEIKRTVAAPSVFIFPPSDEQLKSGTASVVCLLNNFYPREAKVQWKVDNALQSGNSQESVTEQDSKDSTYSLSSTLTLSKADYEKHKVYACEVTHQGLSSPVTKSFNRGEC
notes: PTM variant of PR006895 (human IgG1)
For the molecule B4, the “IC50 of the inhibition of CD200-induced PathHunter Jurkat CD200R1a luminescence (CHOK1/hCD200 cells as CD200 source)” value in test [8] came out at 1.27 nM.

B5: PR007223 (antibody, human IgG1, kappa)
heavy: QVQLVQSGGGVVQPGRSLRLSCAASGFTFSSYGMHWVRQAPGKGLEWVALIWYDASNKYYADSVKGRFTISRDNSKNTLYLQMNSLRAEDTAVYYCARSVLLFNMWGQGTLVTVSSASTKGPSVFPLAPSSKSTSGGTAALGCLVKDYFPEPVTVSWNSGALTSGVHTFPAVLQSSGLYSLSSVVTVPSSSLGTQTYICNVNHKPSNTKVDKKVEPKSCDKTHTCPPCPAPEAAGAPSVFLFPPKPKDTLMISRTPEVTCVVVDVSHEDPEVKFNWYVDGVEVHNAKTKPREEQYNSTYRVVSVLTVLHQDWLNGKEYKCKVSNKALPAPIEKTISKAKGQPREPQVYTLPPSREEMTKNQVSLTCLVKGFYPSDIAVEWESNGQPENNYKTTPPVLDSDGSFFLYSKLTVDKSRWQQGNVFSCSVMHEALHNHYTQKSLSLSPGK
light: B4 light with L92Y
notes: as for B4
In the case of B5, the “IC50 (read off the curve)” value in test [6] is about 10 nM.

A word on the EC50: it is the concentration that produces a half-maximal response. Low readings indicate a more potent agent, high ones a less potent agent.
